Laboratory results from the DeepSol protein solubility set.

Experiment: soluble on expression in E. coli; label from the status in PepcDB or PDB records

Sequence | soluble on expression in E. coli
MADSSSFFSSAFSSAKNLIPFAKNTEDKPVDADTASDAKDAKDSAIQEAVQNASAAINDVFTDAVDKLEEVKDTVVEQFSNGDEKKEEAVVEEKFDSVHVGVDGETAVQEAKEEVKEAQVVVKGVLADGTQIVEGVTDVAEAPVADEKKEETVAAPLDSAAPVEEHKEESHSSEHTEAPAHTEDSIVQADPEARIVFQGVLADGTQIIEAVSANPPCIQEESAPAAAVSEEVGEAVHVVPVDQAPEAPTSEAQDAAPIEEHVEVVHVAENASTPAATDAHEETKSAEEQTPVVDASPAQEIVKVEEHEHKEEAAPDESAPEAAHDSHVEETAAQVVDEVIEAVHVSANESAPEEHKEEVAAAATSEDQKEPAPASDEHTSESAVEGAIESVHIALTESAPVASDENTTEAAPGTVEEHKNEVHDPVDGASSDAPAEDHREAAASSESVEEPITAVHVEATESAAPADKVHEETKIDSAAETHADAPVVDASPAEDQASEVTEAPHVESAKSAPATSEDHKEDVAQATSEQVETQAPADEHKDDASPAEPTTVQDVIEAIPIVSTESTPAEHSAPAESAPALAEEHKDEAAPSEPVQDVPVEEVIEAVHIAPAESAPASVEEAAPSESTQAPVEEHKDATTAADSSHEEPKAESDAPAAESVETAPVEEHKDEASPTALESVEDVIEAVHVASTESAPAPVEDAASADSTQAPVEEQKDTAAAAEPSHEEAQADHAASVEDVIEAVHIASNESAPTTEAAPSESIQAEDHKDEAASTAEPAHEESVTVVEASHKEPQAESAAPVEENIESVHVASEESAPAPSGDAAPSESAPVSENPVEEVAVAYHVESIESVPTDAQSVEEPVVQQHVGTVEAAPEAAVDEESFDVVHVHSDAAHPETATPESGSEETFEKVEHSQVQEAPSSEEHNSSEPEIVEDVVEKQIVAAVASAPETQPEESPKKPRKLAEMAHESAFPVPYRSKLVEPFEPGQTLIVKGKTGEDSIRFTVNLHTNTADFSGNDVPLHVSVRFDEGKLVFNTFSKGEWGKEERKSNPYKKGDDIDIRIRAHDSKFQIFVDQKEVKEYEHRVPLSSITHFTIDGDVLVNYIHWGGKYYPVPYESGLAGEGLAPGKTLTVFGIPEKKAKRFHINLLKKNGDIALHLNARFDEKHVVRNSLINSAWGNEEREGKMPFEKAVGFDLEIHNEPYAFAVTVNGERFASYAHRLSPDEVNGLQIGGDVEITGIQLA | not soluble
MRGIRDPRLIPIAEKVMEGKRLSFEDGLVLYQTKDLPTLMRLANLVRERKHGHKTYFVHSIRVSQTNICYVGCTFCAFQRRFGEEGAWDWDVDEVVAWVKERYQPGLTEIHLTAGHHPKRPFAYYLDLVRALKENFPGVQVKAWTAAEIHHFSKIARLPYREVLKALKEAGLDAMPGGGAEIFAERVRRKIARAKVSAEGWLEIHRTAHELGIPTNATMLYGHIETLEERLDHMDRLRRLQDETGGFMSFIPLAFQPDGNQLARELGKKEFTTGLDDLRNLAVARLYLDNFPHIKGYWATLTPELAQVSLDWGVTDVDGTLIEERIVHMAGSPTPQGLTKRELARIILMAGRIPVERDALYREVRVWDRVEA | soluble
GSDELKWNKGYSLPNLLEVTDQQKELSQWTLGDKVKLEEGRFVLTPGKNTKGSLWLKPEYSIKDAMTIEWTFRSFGFRGSTKGGLAFWLKQGNEGDSTELFGGSSKKFNGLMILLRLDDKLGESVTAYLNDGTKDLDIESSPYFASCLFQYQDSMVPSTLRLTYNPLDNHLLKLQMDNRVCFQTRKVKFMGSSPFRIGTSAINDASKESFEILKMKLYDGVIEDSL | soluble
MGSDKIHHHHHHNFDDLLQLLEIHSRVFDVTPPSTGTVGSMRYLEYNGHVLANVEDLYILDNNKLPSPGVPVETLKLFGVDYIQTGDGVKIITCRVNSIEEIGKTVVVNFEGEKNFDVEQTQNSVRIIAKDWLLFRGVVKMPEEVLYEKENVRIERTAESDGQFRILLSAESVGKYVVKPFGERVDPYEKDVVFLVGYGDGRIIVRSFSKDLNGLDLPAYSESLKLARKIANELGYKLEECPVYDIPVGVIGMIVLLKGKDEMPVFLNTVERLMAE | not soluble
MQALAAMPAPVAASVRIVLTDIDDTLTTEGRLPAGAYAALERLEQAGIVVVPITGRPAGWCDHIARMWPVRAVVGENGAFYYAYDRSARRMNAHYWADAATRAANRQALQAIRERVLREVPGTAVASDQDYRVADLAIDFCEDVPALPDSAVGRIVEIFHEAGAQAKVSSIHVNGWFGDYDKLTMTRTLFEREFGLSIDSALQHTLFIGDSPNDEPMFKFFPISVGVANIQSQLHRIQHRPAFVAAARGGDGFVEMAERLLANRG | not soluble
MGSDKIHHHHHHMDDLMGYVIGETSNTELNFLAKHMPEIGSYVSINYCDLEILGMVESVNQGCKIFEDVYNVKDFEKLKDFENNDSYYTIGKIKILGDVKNMQIPRIPPKPGTEVYDASEKILGEIFSKGTIEIGNLISADSKVKLDVNKLCSRHLAILAITGMGKSNTVSVLLEELNNIHATVLVFDMHREYVEIEAKNSTIRRNIIRPKINVYNMSYDALMSLAGVDPQATVQRAMGRRAMKKIKESKKEVDFNTVDEYINSIINELNYYMGMDEFKSKVDSILTLIMRFEDLMTFKDKITAINYNPIQDIKENYVNIVDISELDESSTDLIISYFTGEILKDRKKVLWDTKVAKPIFIIYEEAHLIVPQNRPTKSKIPISKIAREGRKFGVGICLVSQRPKTLDQESLSQCNNFIISKLIEPSDQKHVQHASENLSEDLLNQLPGLNVGEAVIIGPCLKIPAMVKIKRFEGEYGGEDVKFDELWTTEKEKNIPEFIESNELFNDDL | not soluble
MGHHHHHHSHNQYPAELMRRFELYFQGPSSNKPRVIREVRADSVGKLVTVRGIVTRVSEVKPKMVVATYTCDQCGAETYQPIQSPTFMPLIMCPSQECQTNRSGGRLYLQTRGSRFIKFQEMKMQEHSDQVPVGNIPRSITVLVEGENTRIAQPGDHVSVTGIFLPILRTGFRQVVQGLLSETYLEAHRIVKMNKSEDDESGAGELTREELRQIAEEDFYEKLAASIAP | not soluble
MSLKRIYGSNRYETSIMVSKEGWDKSSYAVISRGDNFADALCAVPLSKKYNAPILLIGKDKLNNNLKSELKRLNVSKVFITGGEGVISKTLEGEIKNIPNIKEVKRLGGKDRYETSKLIAESVGCNGEIVVTAGTNSSDTLSISPIAANKNMPILLTAKDKNLMQKYLKSNKVNKTFVIGGEKCVSKEIENILPNVERIYGENRYETNEKIIKRFSNSLDFKNVYIALAQSQRGDEFADALSSAALAAQKNSPIILIYKDIYKNTKDILNTKLSNESIVSILGGEKLISDNILDNLAISKNEGHHHHHH | not soluble
LDVAKSLDQGLVDRMLQSNTGTDSCPKRLPKGIDSVTLDKIRDLFVGEAALTADEAGEKIGASRTTARRYLEYLISSGELEADLNYGTVGRPERCYKKVIR | not soluble
MGHHHHHHSHMANVLCNRARLVSYLPGFCSLVKRVVNPKAFSTAGSSGSDESHVAAAPPDICSRTVWPDETMGPFGPQDQRFQLPGNIGFDCHLNGTASQKKSLVHKTLPDVLAEPLSSERHEFVMAQYVNEFQGNDAPVEQEINSAETYFESARVECAIQTCPELLRKDFESLFPEVANGKLMILTVTQKTKNDMTVWSEEVEIEREVLLEKFINGAKEICYALRAEGYWADFIDPSSGLAFFGPYTNNTLFETDERYRHLGFSVDDLGCCKVIRHSLWGTHVVVGSIFTNATPDSHIMKKLSGN | not soluble
MRYDVSSNSLYVFCSIVLFSDLRFRIGGKYMAERHMFLKKDPSKENSIIVSNIPAFVGEGVVLAIIDQFASFEVEESFVQRSNTADNSLSQGQLTMSITFDKPEAVIQTLALCQDVGPFTITDFLEDPEFPSVLKDSTTLYRKLFPSEEQIQEMADTYVERYDTEQTEARKEAKRKYSEPDEDGWITVTKAKKAAKSVKLKKEDVPLIGGLNNKKKKVDLAYYTFQIKKNRQEKAQELLKKFEEDRKRITQLKQARNFKPI | not soluble
MVMTVRVIAPDKTVWDAPAEEVILPSTTGQLGILSNHAPLLTALETGVMRVRQDREWVAIALMGGFAEVENNEVTILVNGAERGDTIDLEKAKAEFAAAQAALAQAEQGESKQAKIQATQAFRRARARLQAAGGVVEI | soluble
SNAVYGSEVESKIIEFTIVGADEIIAEKLGISVGDFVYKIIRLRIIHSIPTIMEHTWMPIAVIPGVEASVLEESIYSYIQNKLGLKVGTSVVRVKGIRPDDKEKQFMNLTNQDFLMRVEQVAYLTDGRTFEYSYADHLPETFEFETVITAKSYKEA | soluble
MGSDKIHHHHHHMNSLLASIDSSRAMPVLEDITQHEISALKTRFNLADAHTHQDQSDTQRMIVASLPELWYQAQNQTQYQSEQAFIRAFFTFHGQHHALKRHDEIYLVYAASIAMHITATYLRKNTLSVGLIEPCFDNLHDLLKHMEVPMSPLDESLFSSSSEVYANLQKAAIGLDAIFLVDPNNPTGSSLFADGPDTFVEVARYCRDYNKLLILDFCFASFFMAAGRERVDAYAILDDIGTRYLIMEDTGKTWPLQDTKCATLMASKDINAEIYSIVTSVLLNVSPFILNVVTRYIEDSNDDDFNSVRSVLEVNRRRARDCLEGKVLKYMQPMIDTSVAWFEILPAGIDADELQTYLLQWDVYVLPGKYFYWSQPEKGQRYIRLALARKPEEFDAAVQMIAHALEHFHV | not soluble
MGSDKIHHHHHHMPVAKKYFEIRWHGRAGQGAKSASQMLAEAALEAGKYVQAFPEYGAERTGAPMRAFNRIGDEYIRVRSAVENPDVVVVIDETLLSPAIVEGLSEDGILLVNTVKDFEFVRKKTGFNGKICVVDATDIALQEIKRGIPNTPMLGALVRVTGIVPLEAIEKRIEKMFGKKFPQEVIDANKRALRRGYEEVKCSE | soluble
MKIAVAGSGYVGLSLGVLLSLQNEVTIVDILPSKVDKINNGLSPIQDEYIEYYLKSKQLSIKATLDSKAAYKEAELVIIATPTNYNSRINYFDTQHVETVIKEVLSVNSHATLIIKSTIPIGFITEMRQKFQTDRIIFSPEFLRESKALYDNLYPSRIIVSCEENDSPKVKADAEKFALLLKSAAKKNNVPVLIMGASEAEAVKLFANTYLALRVAYFNELDTYAESRKLNSHMIIQGISYDDRIGMHYNNPSFGYGGYCLPKDTKQLLANYNNIPQTLIEAIVSSNNVRKSYIAKQIINVLKEQESPVKVVGVYRLIMKSNSDNFRESAIKDVIDILKSKDIKIIIYEPMLNKLESEDQSVLVNDLENFKKQANIIVTNRYDNELQDVKNKVYSRDIFGRD | soluble
MKDTLKIGLLGLGTVGTGVLTLLKEHQEKISQVTGMNVVIEKAFVRNLETKQAQAEEYGLSLTTSIDDILEDKEIQIVVELMGTIEPAKTYIMKALEKGKHIVTANKDLLAQHGSELVALAQKHHCDLYYEASVAGGIPILRTIANSLAADNIQQVLGIVNGTTNYMLTQMVSADKSYEEALAEAQALGFAEADPTNDVDGIDAAYKMVILSQFAFGMNVSLPQVDIRGIRGLSLDDVAMAKQLGYEIKLIGSAEQNENSISVEVAPMLVNQKHPIASVRNEYNAVFIKSAGVGESMYYGPGAGAKPTATSVVSDLITIAKNIRLATTGHMFNSYQHKTQLTSSENVFGQYYFSLDVPDTPGQFLQLTQLMTKAEVSFDQLVQQKSDGQRARIVAITHQISKAQMQQVVIAIQNTEAFQLLNVMKVIGDE | not soluble
MGHHHHHHSHQELASKRVDIQNKRFYLDVKQNAKGRFLKIAEVGAGGNKSRLTLSMSVAVEFRDYLGDFIEHYAQLGPSQPPDLAQAQDEPRRALKSEFLVRENRKYYMDLKENQRGRFLRIRQTVNRGPGLGSTQGQTIALPAQGLIEFRDALAKLIDDYGVEEEPAELPEGTSLTVDNKRFFFDVGSNKYGVFMRVSEVKPTYRNSITVPYKVWAKFGHTFCKYSEEMKKIQEK | not soluble
